The target in this assay is T1, V/A-ATPase D subunit, Thermus thermophilus (T. thermophilus, UniProt O87880 1-223).
T1 construct: V/A-ATPase D subunit (central rotor), Thermus thermophilus; also called part of the DF rotor; DF axis
T1 sequence: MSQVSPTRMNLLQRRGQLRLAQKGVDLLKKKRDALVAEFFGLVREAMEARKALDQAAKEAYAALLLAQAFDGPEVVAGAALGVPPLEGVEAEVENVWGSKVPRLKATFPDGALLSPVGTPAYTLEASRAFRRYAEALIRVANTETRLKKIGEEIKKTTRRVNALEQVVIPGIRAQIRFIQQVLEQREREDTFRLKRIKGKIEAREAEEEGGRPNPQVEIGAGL
As to the kind of experiment: cryo-EM structure; nucleotide-free V/A-ATPase in nanodiscs, 4 uM enzyme mixed with an equal volume of x2 RB buffer (50 mM Tris-Cl pH 8.0, 100 mM KCl, 2 mM MgCl2, 5 mM PEP, 100 ug/ml PK, 20 mM ammonium sulfate) with ATP-Mg (low ATP, 60 s; or saturating ATP, 5 s or 30 s) at 25 °C; single-particle analysis, membrane domain subtracted, focused refinement of V1EG. Particulars: both partners purified.

B1: V/A-ATPase F subunit, Thermus thermophilus (natural protein, T. thermophilus)
chain: MAVIADPETAQGFRLAGLEGYGASSAEEAQSLLETLVERGGYALVAVDEALLPDPERAVERLMRGRDLPVLLPIAGLKEAFQGHDVEGYMRELVRKTIGFDIKL
notes: V/A-ATPase F subunit (central rotor), Thermus thermophilus; also called part of the DF rotor; DF axis
For B1, the binding result is recorded as “binds”.

The values are drawn from publication PMC9971907, “Cryo-EM analysis of V/A-ATPase intermediates reveals the transition of the ground-state structure to steady-state structures by sequential ATP binding” (The Journal of Biological Chemistry, 2023).
